We go through seven molecules from US20160251440A1 (Ablynx, published 2016).

Assay [1] concerns the target T1, human IL12Rβ2 extracellular domain Fc-fusion (human, UniProt Q99665 24-622).
T1 construct: extracellular domain; bought; also called IL12Rβ2-Fc; hIL-12Rβ2-Fc
T1 sequence (looked up): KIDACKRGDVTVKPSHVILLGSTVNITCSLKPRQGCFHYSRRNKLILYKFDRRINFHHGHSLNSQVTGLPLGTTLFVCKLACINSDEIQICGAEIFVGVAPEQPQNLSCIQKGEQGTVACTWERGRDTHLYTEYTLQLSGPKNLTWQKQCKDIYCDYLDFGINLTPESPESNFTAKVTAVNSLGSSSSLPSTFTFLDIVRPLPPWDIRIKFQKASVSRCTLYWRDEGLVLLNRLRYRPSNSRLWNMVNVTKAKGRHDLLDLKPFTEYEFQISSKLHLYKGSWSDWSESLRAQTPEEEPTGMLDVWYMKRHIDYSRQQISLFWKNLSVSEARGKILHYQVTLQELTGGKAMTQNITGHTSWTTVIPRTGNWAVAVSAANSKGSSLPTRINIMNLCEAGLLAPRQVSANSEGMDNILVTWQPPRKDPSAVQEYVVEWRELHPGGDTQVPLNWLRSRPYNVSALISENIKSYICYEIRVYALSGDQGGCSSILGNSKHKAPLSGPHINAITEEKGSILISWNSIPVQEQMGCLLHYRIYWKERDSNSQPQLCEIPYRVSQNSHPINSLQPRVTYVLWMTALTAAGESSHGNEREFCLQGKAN
Nature of the assay: competition ELISA, coated IL-12 + IL12Rβ2-Fc. On the technique in general: In an ELISA, binding on a coated surface is turned into a signal by an enzyme label.

Assay [2] has as its target T1, human IL12Rβ2 extracellular domain …. Nature of the assay: SPR Biacore T100, captured IL12Rβ2-Fc.
Assay [3] concerns the target T2, human CD4, cell-expressed (human, UniProt P01730 26-458).
T2 construct: whole, on cells
Nature of the assay: flow cytometry on MOLM-13 cells (CD4, no IL12R or IL23R), upper left panel. Background: A flow cytometer gives signals particle by particle.

In assay [4] the target is T3, human IL12Rβ1, cell-expressed (human, UniProt P42701 24-662).
T3 construct: whole, on cells; in the context of the heterodimeric receptor; also called IL12Rb1
Nature of the assay: flow cytometry on isolated CD8+ T cells of donor D863, anti-Flag detection.

The target in assay [5] is T4, human IL12Rβ2, cell-expressed (human, UniProt Q99665 24-862).
T4 sequence (looked up): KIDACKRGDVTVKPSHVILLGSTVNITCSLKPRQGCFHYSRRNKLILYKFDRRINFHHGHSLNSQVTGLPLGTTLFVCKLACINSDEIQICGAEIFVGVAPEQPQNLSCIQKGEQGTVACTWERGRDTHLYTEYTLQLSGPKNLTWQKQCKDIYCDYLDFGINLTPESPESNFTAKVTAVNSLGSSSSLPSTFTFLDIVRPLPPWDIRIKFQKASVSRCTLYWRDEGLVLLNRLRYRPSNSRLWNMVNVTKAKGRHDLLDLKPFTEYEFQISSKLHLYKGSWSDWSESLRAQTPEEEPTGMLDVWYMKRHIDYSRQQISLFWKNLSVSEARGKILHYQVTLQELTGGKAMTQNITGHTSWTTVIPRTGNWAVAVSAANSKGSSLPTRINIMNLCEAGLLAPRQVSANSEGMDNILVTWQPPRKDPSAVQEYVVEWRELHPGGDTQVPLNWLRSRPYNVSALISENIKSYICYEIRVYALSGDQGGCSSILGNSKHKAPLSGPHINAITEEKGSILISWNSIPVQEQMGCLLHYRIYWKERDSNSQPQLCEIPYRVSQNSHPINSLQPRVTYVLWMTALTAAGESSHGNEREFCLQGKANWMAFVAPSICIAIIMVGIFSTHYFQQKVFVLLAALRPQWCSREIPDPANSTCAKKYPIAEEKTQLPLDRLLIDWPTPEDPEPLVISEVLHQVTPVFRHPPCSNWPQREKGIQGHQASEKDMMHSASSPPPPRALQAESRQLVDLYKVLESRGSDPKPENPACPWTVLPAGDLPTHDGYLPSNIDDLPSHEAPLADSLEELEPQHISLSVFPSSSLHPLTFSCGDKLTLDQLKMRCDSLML
The assay can be described thus: cell-based or functional assay.

The target in assay [6] is T1, human IL12Rβ2 extracellular domain …. The assay can be described thus: competition ELISA, coated IL-12 + 3 nM IL12Rβ2-Fc.
Assay [7] addresses T4, human IL12Rβ2, cell-expressed. Nature of the assay: FACS, activated human T cells.
For assay [8], the target named is T5, recombinant IL-3Rα ectodomain (human, UniProt P26951 19-305).
T5 construct: extracellular domain; also called recombinant IL-3Ra; biotinylated-IL-3Rα ectodomain
T5 sequence (looked up): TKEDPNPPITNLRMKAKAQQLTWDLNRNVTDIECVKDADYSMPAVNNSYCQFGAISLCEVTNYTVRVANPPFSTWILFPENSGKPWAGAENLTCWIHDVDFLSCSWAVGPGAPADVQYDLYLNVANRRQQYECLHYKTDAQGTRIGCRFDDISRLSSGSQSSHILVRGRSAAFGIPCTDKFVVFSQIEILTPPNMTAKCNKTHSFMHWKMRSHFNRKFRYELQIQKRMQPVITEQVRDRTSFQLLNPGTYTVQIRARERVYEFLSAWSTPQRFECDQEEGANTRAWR
The assay can be described thus: ELISA on recombinant IL-3Ra ectodomain (panel 'IL-3Ra ELISA', lower left).

The target in assay [9] is T6, CXCR4 and IL-3Rα (CD123) co-expressed on MOLM-13 / THP-1 cells (human, UniProt P61073 1-352; P26951 19-378).
T6 construct: whole, on cells; two separate membrane proteins on one cell, not a complex; target of bispecifics on double-positive cells; also called CXCR4+/CD123+ cells
T6 sequence (P61073 whole entry, one chain of several): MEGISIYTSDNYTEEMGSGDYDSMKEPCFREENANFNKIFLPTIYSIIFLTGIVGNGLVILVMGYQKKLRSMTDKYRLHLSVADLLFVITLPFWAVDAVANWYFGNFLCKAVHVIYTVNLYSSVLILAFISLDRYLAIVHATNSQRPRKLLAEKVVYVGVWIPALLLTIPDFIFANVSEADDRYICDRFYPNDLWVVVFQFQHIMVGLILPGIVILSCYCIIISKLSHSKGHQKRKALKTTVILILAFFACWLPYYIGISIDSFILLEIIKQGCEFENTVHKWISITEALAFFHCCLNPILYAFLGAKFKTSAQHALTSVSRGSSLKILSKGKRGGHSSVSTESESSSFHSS
Nature of the assay: flow cytometry on MOLM-13 cells (IL-3Ra higher than CXCR4).

In assay [10] the target is T7, human CXCR4 (on cells, viral lipoparticles or membrane extracts) (human, UniProt P61073 1-352). The assay can be described thus: cell-based or functional assay.
T7 sequence (P61073 whole entry, the tested form may be a part): as the sequence (P61073 whole entry, one chain of several) above
In assay [11] the target is T5, recombinant IL-3Rα ectodomain. The assay can be described thus: ELISA on recombinant IL-3Ra ectodomain (both lower panels).
Assay [12] addresses T7, human CXCR4 (on cells, viral …). Nature of the assay: ELISA, CXCR4 viral lipoparticles.
For assay [13] the target is unchanged. Nature of the assay: cell-based or functional assay. The source holds these as a separate data set.
Assay [14] shares this target. Nature of the assay: FACS displacement of 30 nM biotin-SDF-1, Caki-CXCR4 cells.
Assay [15] has the same target. Nature of the assay: FACS, Caki-CXCR4 cells.
Assay [16] shares this target. The assay can be described thus: FACS, Jurkat cells.

B1: IL12Rb2#1: 135B08 (VHH)
VHH: EVQLVESGGRLVQAGDSLRLSCAASGRTFISYRMGWFRQAPGKEREFVAALRWSSSNIDYTYYADSVKGRFSISGDYAKNTVYLQMNSLKAEDTAVYYCAASTRWGVMESDTEYTSWGQGTLVTVSS
notes: also called IL12Rβ2#1; LG135B08
A word on the IC50: it is the concentration needed to halve the response being measured. A word on the Kd: it is the concentration at which binding is half-saturated. The low end stands for higher affinity, the high end for lower affinity. What is called koff is a measure of how fast the partners let go of each other. What is called kon is a measure of how fast the partners come together. Lower therefore signals slower complex formation. A word on the EC50: it is the concentration that produces a half-maximal response. Higher therefore signals a less potent agent. On to B1, for which, in [1], the half-maximal inhibitory concentration (IC50) amounted to 4.2 nM. Further, in assay [2], the affinity, expressed as Kd, was 2.7 nM; the koff was determined as 0.00057 s⁻¹; the on-rate (kon) worked out at 210000 M⁻¹ s⁻¹. In addition, the binding result in assay [3] is listed as “no binding (tested: 1E-6 M)”. Moreover, the binding result in [4] is reported as “no binding (tested: 250 nM)”. Moreover, in assay [5], the “IC50, IFNγ release, PBMC D840” value was 13.5 nM and the “IC50, IFNγ release, T cells D839” value was 51 nM. For the same molecule, the half-maximal inhibitory concentration (IC50) in assay [6] is 4.2 nM. In assay [7], the EC50 was 1.5 nM.

B2: IL12Rb2#2: 135A07 (VHH)
VHH: EVQLVESGGRLVQAGDSLRLSCAASGRTFTSYRMGWFRQAPGKEREFVSALRWSSGNIDYTYYADSVKGRFSISGDYAKNTVYLQMNSLKAEDTAVYYCAASTRWGVMESDTEYTSWGQGTLVTVSS
notes: also called IL12Rβ2#2; LG135A07
Consider B2, for which the IC50 in assay [1] was 15 nM. In assay [2], this molecule came in with a Kd of 6.9 nM, a koff of 0.0018 s⁻¹ and a kon of 270000 M⁻¹ s⁻¹. Moreover, the binding result in assay [3] is on record as “no binding (tested: 1E-6 M)”. For the same molecule, in assay [5], the “IC50, IFNγ release, PBMC D840” value amounted to 40 nM and the “IC50, IFNγ release, T cells D839” value worked out at 67 nM. In assay [6], the concentration for half-maximal inhibition (IC50) was 15 nM. The half-maximal effective concentration (EC50) in [7] was determined as 1.8 nM.

B3: 55A01-35GS-281F12 (bispecific antibody)
chain: EVQLVESGGGSVQAGGSLRLSCTTSGRALNMYVMGWFRQAPGNEREFVAATSSSGGSTSYPDSVKGRFTISRDNAKNTVYLQMNSLKPEDTAAYRCAASPYVSTPTMNILEEYRYWGQGTLVTVSSGGGGSGGGGSGGGGSGGGGSGGGGSGGGGSGGGGSEVQLVESGGGLVQAGDSLRLSCAASGRAFSRYAMGWFRQAPGKEREFVAAIGWGPSKTNYADSVKGRFTISRDNAKNTVYLQMNTLKPEDTAVYSCAAKFVNTDSTWSRSEMYTYWGQGTLVTVSS
notes: also called CD123#2-CXCR4#2; 55A01-281F12
The EC50 (read off the curve) is the concentration at which the effect is half-maximal. B3: the “EC50 (read off the curve)” value in [8] was around 1 nM; in [9] it was around 10 nM.

B4: 55A01-35GS-14D09 (bispecific antibody)
chain: EVQLVESGGGSVQAGGSLRLSCTTSGRALNMYVMGWFRQAPGNEREFVAATSSSGGSTSYPDSVKGRFTISRDNAKNTVYLQMNSLKPEDTAAYRCAASPYVSTPTMNILEEYRYWGQGTLVTVSSGGGGSGGGGSGGGGSGGGGSGGGGSGGGGSGGGGSEVQLVESGGGLVQAGGSLRLSCVASGISSSKRNMGWYRQAPGKQRESVATISSGGNKDYTDAVKDRFTISRDTTKNTVYLQMNSLKPEDTAVYYCKIEAGTGWATRRGYTYWGQGTLVTVSS
notes: FLAG3-His6 also made; also called CD123#2-CXCR4#1; 55A01-14D09
On to B4, for which, in assay [8], the half-maximal effective concentration (EC50 (read off the curve)) is around 1 nM. For the same molecule, in assay [10], the “Fold inc. vs CXCR4#1, Jurkat E6-1” value was 0.12 fold; the “Fold inc. vs CXCR4#1, MOLM-13” value amounted to 0.03 fold; the “IC50, CXCL-12 chemotaxis, Jurkat E6-1” value was 85 nM; the “IC50, CXCL-12 chemotaxis, MOLM-13” value was found to be 290 nM.

B5: 14D09 (VHH)
VHH: EVQLVESGGGLVQAGGSLRLSCVASGISSSKRNMGWYRQAPGKQRESVATISSGGNKDYTDAVKDRFTISRDTTKNTVYLQMNSLKPEDTAVYYCKIEAGTGWATRRGYTYWGQGTLVTVSS
notes: also called CXCR4#1; 14D9
For B5, the binding result in [11] is listed as “no binding (tested: 1E-6 M)”. The results for the half-maximal effective concentration (EC50) in assay [12], in [15] and in assay [16] were 7.28 nM, 9.9 nM and 11 nM, respectively. Besides, in assay [13], the “IC50, SDF-1 chemotaxis, Jurkat” value was 11 nM. The IC50 in assay [14] was 18.4 nM. Further, the “IC50, CXCL-12 chemotaxis, Jurkat E6-1” value in assay [10] is 10.4 nM. Further, in assay [10], the “IC50, CXCL-12 chemotaxis, MOLM-13” value turned out to be 8.62 nM.

B6: 14A02 (VHH)
VHH: EVQLVESGGGLVQAGGSLRLSCVASGISSSIRNMGWYRQAPGKQRESVATISSGGNKDYTDAVKDRFTISRDTTKNTVYLQMSSLKPEDTAVYYCKIEAGTGWATRRGYTYWGQGTQVTVSS
Turning to B6, the EC50 in assay [12] was 0.73 nM; in assay [15], 4 nM; in assay [16] it was 1.15 nM. Further, in [13], the “IC50, SDF-1 chemotaxis, Jurkat” value turned out to be 0.95 nM. This molecule also showed a 50% inhibitory concentration (IC50) in assay [14] of 4.1 nM.

B7: 14E02 (VHH)
VHH: EVQLVESGGGLVQAGGSLRLSCVASGISSSIRNMGWYRQAPGKQRESVATISSGGNKDYTDAVKDRFTISRDTTKNTVYLQMNSLKPEDTAVYYCKIEAGTGWATRRGYTYWGQGTQVTVSS
notes: also called 14E2
For B7, the values for the EC50 in assay [12] and in [15] were 0.78 nM and 2.6 nM, respectively. In assay [14], this molecule came in with a half-inhibitory concentration (IC50) of 13.5 nM.
